# Laboratory results taken from the nanobody polyreactivity screen of Harvey et al. (2022).
# Experiment: yeast display, Sf9 membrane polyspecificity reagent, FACS + sequencing; frameworks hold sequencing errors
# In short: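 Polyreactivity labels are assigned by the sorting gate from which each nanobody was recovered. The gates were low and high (top ~1%), set on anti-HA fluorescence for expression and streptavidin fluorescence for reagent binding. Before sorting, galactose-induced (36–48 hours) yeast display cells were stained for 1 hour at 4 °C with 10% biotinylated, detergent-solubilized Sf9 membrane reagent.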
row,Sequence,polyreactivity (PSR sort gate)
1,QVQLVESGGGLVQAGGSLRLSCAASGFTFVYYVMGWYRQAPGKERELVAAIRSGDGNTHYADTEKGRFTISRDNAKNTVYLQMNSLKPEDTAVYYCAASSRTFGYKYFYWGQGTQVTVSS,high polyreactivity
2,QFQLVESGGGLVQAGGRLRLSCAASGSTFLPYAMGWYRQAPGKESELVAAIRGRGGRTYYADSVKGRFTISRANAKNTVYLQMNSLKPEDSAVYYCAADVKGLSWTYDSWGQGTQVTVSS,high polyreactivity
3,QVQLVESGGGLVQAGGSLRLSCAASGSIFLVYAMGWYRQAPGKERELVAAIDWSDTDTYYADSVKGRFTISRDNAKNTFYLQMNSLKPEDTAVYYCAADHVGVDFEYWGQGTQVTVSS,low polyreactivity
4,QLQLVESGGGLVQAGGSLRLTCAASGSIIWVYAMGWYSQAPGKEWELVAAITSGVSTYYADSVKGRFTISRDHAKNTVSFQMISLKPEDTAVYYCAVVGGFRWIRMEYWGQGTQVTVSS,low polyreactivity
5,QVQLVESGGGFVQAGGSLRVSCAASGSIFRPDAMGWYRPAPGKERELVAAITWSGGRTYYADSVKGRFTISRDNAKNTVDLQMNSLKPEDTAVYYCAARPRYYYWFKSGTRVEYDYWGQGTQVTVSS,high polyreactivity
6,QVQLVESGGGLVQAGGSLRLSCAASGRTFYLYAMGWYRPAPGKERELVAAITWSGGSTYYADSVKGRFTISRYNAKNTVFLQMNSLKPEDTAVYYCAAGLYLFQIWFGNEYDYWGQGTQVTVSS,high polyreactivity
7,QVQLVESGGGLVQAGGSLRLSCAASGSIFYNYAMGWYRQAPGKERELVAAISGSGGSTYYADSVKGRFTISRDNAKNTVYGQMNSLKPEDTAVYYCSTSGPQYYSRNFDYWGQGTQVTVSS,low polyreactivity
8,QVQLVETGGGLVHAGVSLRLSCAASGSILSLNAMGWYRQAPGKERELVAVISNCGGSTYYADSVKGRFTISRDNAKNTVYFQMKSLNPEDTAVYYCAVALKYQRRYYYWGQGTQVTVSS,high polyreactivity
9,QVQLVESGGGLVQAGGTLRLSCAASGSILGGNAMGWYRQAPGKERELVAAITFSGGGTYYADSVKGRFTISRDNAKNTVYLQMNSLKPEDTAVYYCAADKDGYTYEFDYWGQGTQVTVSS,low polyreactivity
10,QVHLVESGGGLVQAGCSLRLICAASGRIFTLYAMGWYRQAPGTEMEFVAAINRGGSTNYADSVKGRFTISRDNAKNTVYLQMNSLKPEVTAVYYCAAITTSRFRTYSYDYWGQGTKVTVSS,high polyreactivity
11,QVQLVESGGGLVQAGGSLRLSCAASGTTFLINAMGWYRQAPGKERELVATISSGGSTYYADSVKGRFTISRDNAKNNVYLQMNSLKPEDTAVYFCAADPDRTAYDYWGQGTQVTVSS,low polyreactivity
12,QVHLVESGGGLVQAGGSLRLSCAASGSTFILNAMGWYRQAPGKERELVATISSSDTSTYYADSVKGRFTISRDNAKNTVYLQMNSLKPEDTAVYYCNADYYTTSYLQRVYHYGVEYDYWGQGTQVTVSS,low polyreactivity
13,QVQLVESGGGLVQAGGSLRKTCAASVRIFHYYAMGWYRQAPGKERELVAAINKSGGRTYYADSVKGRFTISRDNAKNTFYLQMNSLKPEDTAVYYCAAQDGYLGQGTQVTVSS,high polyreactivity
14,QVQLQESGGGLVQAGGSLRLSCAASGNISSYYRMGSYRQAPGKEREFVATIAVGGTTNYADSVKGRFTISRDNAKNTVYLQMNSLKPEDTAVCFCAANSTQYTWFDYWGQGTQVPVSS,low polyreactivity
15,QVQLVESGVGLVQAGGSLRLSCAASGRTISYNARGWYRQAPGKEREFVADINYSAGSTYYADSVKGRFTISRDNAKNTGKLQMNRLKPEDTAVYYCAAKYYGEMYSWGQGTQVSVSS,low polyreactivity
16,QVQLVESGGGIVQAGGSLRLSCAASGIISRVYAMGWYRQAPGKERELVAAISGSGGTTYYADSVKGRFTISRDNAKNTVYLQMNRLKPEDTAVDYCAARYKALYDYWGQGTQVTVSS,high polyreactivity
17,QVQLVESCGGLVQAGGSLRISCAASGIIFHLYAMGWYRQAPGKQRELVAAISWNGSSTYYADSVKGRFTISRDYAKNTVYLQRNSLKPEDTAVYYCAASYGYFEDYGYWGHGTQVTVSS,low polyreactivity
18,QVQLVESGGGLVQAGGSLRLSCAASGSTFYGYAMGWYRQAPGKERELVAAISVRAGITYYADSVKGRFTISRDNAKNTVYLQMNSLKPEDTAVYYCAKDHWTTSYDEGDYWGQGTQVTVSS,low polyreactivity
19,QVQLVESGGGLVQAGGSLRLSCAASGITFEGYAMGWYRQAPGKERELVAAITGSGSTTYYADSVKGRFTISRDNAKNTVYLQMNSLKPEDTAVYYCAADVSYKLYWGQGTQVTVSS,low polyreactivity
20,QVQLVESGGGLVQAGGSLRLSCAASGYIFVRYAMGWYRQAPGKEREFVAAISSSGGSTRYADSVKGRFTISRDNAKNTVYLQMNSLKPEDTAVYYCAATRVARHGSPMYYWGQGTEVTVSS,high polyreactivity
21,QFQLVESRGGLVKAGGSLRLTCAASGSILYQNTMGWYRQATGKERELVAAISGSGSRTYYADSVKGRFTISRDNAKNTVYLQMNSLKPEDTAVYYCAASGYWPFRSGFGYWGQGTQVTVSS,high polyreactivity
22,QVQLVESGGGLVQAGGSLRLRCAASGSTFFRYAMGWYRPAPGKERELLAAITSGGITNYADSVKGRFTISRDNAKNTVYLQMHSLKPEDTAVYYCAKRRTYPGKGRFNYWGQGTQVTVSS,low polyreactivity

row,Sequence,polyreactivity (PSR sort gate)
1,QVQLVESGGGLVQAGGSLRLSCAGSGRIFTQYAMGWYGQAPGKERELVAAINASDGSTYADSVKGRFTISRDNAKNTVYLQMNSLKPEDTAVYYCNVTGGPYDFTRWSEFDHWGQGTQVTVSS,low polyreactivity
2,QVQLVESGGGLVQAGGSLRLSCAASGRTISFYAMGWYRQAPGKERELVAAISRSGGSTYYADSVKGRFTISRDNAKNTVYLQMNSLKPEDTAVYYCAARDQYRWYKYDYWGQGTQVTVSS,high polyreactivity
3,QVQLVESWGGLVQAGGTLRLSCAASGGIFIDYTMGWYRQAPGKERELVAAITRGGSTYYADSVKGRFTISRDNAKNTVYLEMNSLIAEDTAVYYCAARANSPVGHNRFGYWGQGTQVTVSS,low polyreactivity
4,QVQLVESGGGLVQAGGSLRLSCAASGSIFTINAMGWYRQAPGKERELVAAISFSGGRTYYADSVKGRFTISRDNAKNTVYLQMNSLKPEDTAVYYCAAPFYYYGVRFDYWGQGTQVTVSS,high polyreactivity
5,QVQLVESGGGLVQAGGSLRLSCAASGSIFYGNAMGWYRQAPGKERELVAAITRGTRTYYADSVKGRFTISRDNAKNTVYLQMNSLKPEDTAVYYCAAYLYVPYRYKYDYWGQGAQVTVSS,high polyreactivity
6,QVQLVESGGGLVQAGGSLRLSCAASVLIFYDNIGWYRQAPGKERELVAAIDSGGNTYADSVKGRFTISRDNAKNTVYLQMNSLKPEDTAVYYCAVDGGEFSSYGYWGQGTQVTVSS,low polyreactivity
7,QVQLVESGGGLVQAGGSLRLSCAASGRTFPGYAMGWYRQAPGKERELVATITFSDGSTYYADSVKGRFTISRDNAKNSVYLQMNSLKQEDTAVYYCNARRSYFLRYGVNYWGQGNQVTVSS,low polyreactivity
8,QVQLVESGGGLVPAGGSLRLSCDASGRTFWFYAMGWYRQAQGKERELVASITSGGGTNYADSVKGRFTISRDNAKNTVYLQMNSLKPEDTAVYYCAADRAYGVLGNEGGYWGQGTQVTVSS,high polyreactivity
9,QVQLVESGGGLVQAGGSLRLSCAASGSTFIIYAMGWYRQAPGKERELVAAISWSGGSTYYADSVKGRFTISRDNAKNTVYLQMNSLKPEDTAVYYCNAARYYTPWRTWYDYWGQGTQVTVSS,high polyreactivity
10,QVQHVESGGGLVQAGGSLRLSCAASGSIFLLYAMGCYSQAPGKERELVAAISTRDGSTYYADSVKGRFTISRDNAKNTVYLQMNSLKPEDTAVYYCATLYSYNYWGQGTQVTVSS,high polyreactivity
11,QVQLVESGGGLVQAGGSLRLSCAASGSTFDWYTMGWYRQAPGKERELVAAISSGGRTYYADSVKGRFTISRDNAKNTVYLQMNSLKPEDTAVYYCAVAWRVGITKYGYWGQGTQVTVSS,high polyreactivity
12,QVQLVESGGGLVQAGGSLRLSCAASGSIFSRNAMGWYRQAPGKERELVAAITGSGSSTYYADSVKGRFTISRDNAKNTVYLQMNSLKPEDSAVYYCNAARVYLSEWGQGTQVTVSS,high polyreactivity
13,QVQLVETGGGLVQAGGSLRLSCAASGRIFYYNAMGWYRQAPGKERELVAAITGSGGSTYYADSVKGRFTISRDNEMNTVYLQMNSLKPEDSAVYYCAAVNPYIRGRYDYWGQGTQVTVSS,high polyreactivity
14,QVQLVESGGGLVQAGGSLRLSCAASGRIFNYYAMGWYRLAPGKERELVAAINSGGSTYADSVKGRFTISRDNAKNTVYLEMNSLKPEDTAVYYCANDGQLQSGRERPSGYDHWGQGTQVTVSS,low polyreactivity
15,QDQLVESGGGLLQAGGSLRLSCAASGFTFSIYAMGWYRQAPGKERELVAAISSSSSTNYADSVKVRFTISRDNAKNTVYLQMNSLKPEDTEVYYCNADNVGNTFTWYDYWGQGTQVTVSS,low polyreactivity
16,QVQLVESGGGLVQAGGSLRLSCASSGSIFTINAMGWYRQAPGKERELVAAIPYSGGFTYYADSVKGRFTISRDNAKNTVYLQMNSLKPEDTAVYYCAAVRGYPSRITSYVYTYGYWGQGTQVTVSS,low polyreactivity
17,QVQLQESGGGLVQAGGCLSCTASGTIFGQGDMGWYRQAPGKERELVATINVGASTYYADSVKGRFTISRDKAKNTVYLQKNSLKPDDTAVYYCAVFTDITTYFGYWGQGTQVTVSS,low polyreactivity
18,QVQLVESGGGLVQAGGSLRLSCAASGSIFYRYAMGWYRQAPGKERELVAAIRWSGGSTYYADSVKGRFTISRDNAKNTVYLQMNSQKPEDTAVYYCATEVSYGGYWSWYGYWGQGTQVTVSS,low polyreactivity
19,QDQLVESGGGLVQAGGSLRLSCAASGRILKYNAMGWYRQAPGKERELVAAISYRGGSTYYADSVKGRFTISRDNAMNTVYLQMNSLKPEDTAVYYCNAGGGILNGPLFDYWGQGTQVTVSS,low polyreactivity
20,QVQLVESGGGLVQAGGSLRLSCAASGFTFKDNTMGWYRQAPGKEGELVAAISSRGGSTYYADSVKGRFTISRDTAKNTVYLQMNSLKPEDTAVYYCAARSHSSRSRSPGDYWGQGTQVTVSS,high polyreactivity
21,QVQLVESGGGLVQAGGSLRLSCAASGRIFQWYTMGWYRQAPGKERELVATITDGGSTYYADSVKGRFTISRDNAKNTVYLQMNSLKPEDTAVYYCAARKIGSRRLLYPYYIFGYWGQGTQVTVSS,high polyreactivity
